Target: the molecule itself
Assay: crystal structure

B1: AF2299, a CDP-alcohol phosphotransferase from Archaeoglobus fulgidus (enzyme, Archaeoglobus fulgidus DSM 4304, UniProt O27985 1-344, looked up)
chain: MRLAYVKNHEIYGEKLLGLTLRERIEKTLQRAGFDVRFFDELSLEEAEDYLIILEPVLILERDLLLEGRKILVSDGFTVGYFFGGDFRTVFDGNLQSSIEKYLSLNNLESYEIWAIKLSNDNLKTAEKLLLSSLIKAKRTGLKPAYYDGWIAREINRKVSLRISRLLADTSVTPNQITVFSFFLSLVGSALFLLNSYLTTLLAGVIIQLHSIIDGCDGEIARLKFMESKYGAWLDGVLDRYSDFIIVFSITYVLSASNPVYWIIGFLAAFASLMIAYTGDKFVAAYMRTYSPEGFAIPITRDFRLLIIFACSVVNLPSLALVIIALLGNFEALRRIVALRSYTN
With B1 the “stoichiometry N” value was 2.
